Results on ten molecules are retold here after publication PMC5465072 (2017).

Experiment [1] addresses T1, CMG2 38-218 (Homo sapiens, UniProt P58335).
T1 chain: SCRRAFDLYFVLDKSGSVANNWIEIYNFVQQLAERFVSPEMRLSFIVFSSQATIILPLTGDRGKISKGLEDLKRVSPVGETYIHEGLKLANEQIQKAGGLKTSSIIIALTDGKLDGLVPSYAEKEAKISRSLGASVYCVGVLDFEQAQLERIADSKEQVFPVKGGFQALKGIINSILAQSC
Nature of the experiment: microscale thermophoresis. (MST reads how a fluorescent partner responds to local heating, with and without ligand.)

Experiment [2] deals with T1, CMG2 38-218. Nature of the experiment: sandwich ELISA (competition with His6-PA 488-735). In general terms: An ELISA detects its analyte on a solid surface through an enzyme-linked reagent.

Square brackets hold non-standard residues; d marks the D form. Ends that are not written are not given here. Tyr(3-NO2) = N[C@@H](Cc1ccc(O)c([N+](=O)[O-])c1)C(=O)O; Phe(4-NO2) = N[C@@H](Cc1ccc([N+](=O)[O-])cc1)C(=O)O; Tyr(3,5-Br2) = N[C@@H](Cc1cc(Br)c(O)c(Br)c1)C(=O)O; Phe(4-CN) = N#Cc1ccc(C[C@H](N)C(=O)O)cc1; Phe(4-Cl) = N[C@@H](Cc1ccc(Cl)cc1)C(=O)O; Phe(4-F) = N[C@@H](Cc1ccc(F)cc1)C(=O)O; hPhe = N[C@@H](CCc1ccccc1)C(=O)O; Phg = N[C@H](C(=O)O)c1ccccc1

In general, Kd refers to the free concentration of one partner at which half of the binding sites on the other are occupied at equilibrium, for simple one-to-one binding. For CLR[Phg]T [CLR(phenylglycine)T], in the experiment with CMG2 38-218 [1], the Kd came to 59.6 µM. On the same count and under the same terms, the value for CLR[hPhe]T [CLR(homophenylalanine)T] was 74 µM. Regarding CLR[Tyr(3-NO2)]T [CLR(3-nitro-Y)T], the Kd with CMG2 38-218 [1] worked out at 112 µM. Take CLR[Tyr(3,5-Br2)]T [CLR(3,5-dibromo-Y)T]: the affinity in the experiment with CMG2 38-218 [1], expressed as Kd, was 60 µM. The same measure, in the same setting: for CLR[dF]T [CLR(D-Phe)T] the value was 31 µM; for CLR[Phe(4-Cl)]T [CLR(4-Cl-F)T], 14 µM.

With CLR[Phe(4-NO2)]T [CLR(4-nitro-F)T], binding with CMG2 38-218 [1] was put at a Kd of 36.2 µM. In the experiment with CMG2 38-218 [1], CLR[Phe(4-CN)]T [CLR(4-cyano-F)T] came in with a dissociation constant Kd of 61.4 µM.

The term IC50 denotes the point on the concentration scale where inhibition reaches its midpoint. High values mean weaker potency in that assay, low ones greater potency in that assay. Regarding CLRPT, the IC50 with CMG2 38-218 [2] was 153 µM. For the molecule CLR[Phe(4-F)]T [CLR(4-fluoro-F)T], the Kd in the experiment with CMG2 38-218 [1] was 49.9 µM.
